From patent publication US20260132208A1 (DOMAIN THERAPEUTICS, published 2026) come the findings set out here.

For one assay, the target named is T1, pm5 (Y15 and Y17 sulfated; Y16 not sulfated).
T1 construct: also called sulfated CCR8 N-terminal peptide pm5
Briefly: ELISA on coated peptide [cont.]. An outline of the steps:
(§1)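 Wells were coated with CCR8-related peptides at 500 ng/ml in carbonate/bicarbonate buffer. Anti-CCR8 mAbs were tested from 1 μg/mL in 1/10 dilutions and bound for 90 min at room temperature. Detection used TMB for 15 min with an optical density read-out.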
(In general: An ELISA detects its analyte on a solid surface through an enzyme-linked reagent.)

For a further assay, the target named is T2, pm3 (Y17 sulfated; Y15 and Y16 not sulfated).
T2 construct: also called sulfated CCR8 N-terminal peptide pm3
T2 sequence (peptide, as listed by the source): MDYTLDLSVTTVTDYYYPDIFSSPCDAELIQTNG
As to the kind of experiment: ELISA on coated peptide [cont.]. An outline of the steps: as §1

The target in the next assay is T3, pm6 (Y16 and Y17 sulfated; Y15 not sulfated).
T3 construct: also called sulfated CCR8 N-terminal peptide pm6
T3 sequence (peptide, as listed by the source): as above
Briefly: ELISA on coated peptide [cont.]. An outline of the steps: as §1

For the next assay, the target named is T4, pm1 (sulfated tyrosine(s) among Y15, Y16, Y17; which ones is not told (the underlining of Table 1 is lost in the text)).
T4 construct: also called sulfated CCR8 N-terminal peptide pm1
T4 sequence (peptide, as listed by the source): as above
As to the kind of experiment: ELISA on coated peptide [cont.]. An outline of the steps:
as §1

The target in a further assay is T5, pm8 (Y15, Y16 and Y17 sulfated).
T5 construct: also called sulfated CCR8 N-terminal peptide pm8
T5 sequence (peptide, as listed by the source): as above
As to the kind of experiment: ELISA on coated peptide [cont.]. An outline of the steps: as §1

A further assay concerns the target T6, pm4 (sulfated tyrosine(s) among Y15, Y16, Y17; which ones is not told (the underlining of Table 1 is lost in the text)).
T6 construct: also called sulfated CCR8 N-terminal peptide pm4
As to the kind of experiment: ELISA on coated peptide [cont.]. An outline of the steps:
as §1

Assay [1] addresses T7, human CCR8 (human, UniProt P51685 1-355). Briefly: cell-based or functional assay.
The target of assay [2] is T8, human CCR8 with a SNAP-tag at the N-terminus (human, UniProt P51685 1-355, SNAP-tag labelled covalently with Lumi4-Terbium). Briefly: cell-based or functional assay.
In assay [3] the target is T8, human CCR8 with a SNAP-tag at the …. As to the kind of experiment: HTRF Tag-lite, inhibition of hCCL1-AF647 binding to SNAP-hCCR8 on HEK-293 cells. How it is done: The inhibition of CCL1 binding to hCCR8 was evaluated with the Tag-Lite® technology from Cisbio (Revvity). Human CCR8 is engineered with a SNAP-tag at the N-terminus of the GPCR. hCCR8 SNAP-tag is transiently transfected on HEK-293 cell line using FuGene® (Promega, Madison, WI, USA). 48 hours after transfection, cells are labeled with the substrate Lumi4-Terbium® (Cisbio, Codolet, France) which covalently reacts with the SNAP-tag, for 1 h at 37° C. Thawed or freshly labeled cells are plated in a 384 low volume white plate (GREINER Bio-One, Courtaboeuf, France) (10000 cells/well/10 μl). […] The Kd was previously obtained in a saturation binding assay on the same cells. […] The plate is next incubated at 21° C. for 2 h. Detection of HTRF signal is performed on the multiplate reader EnVision (PerkinElmer, Waltham, MA, USA). The HTRF (665/620) ratio is calculated by EnVision software, the data exported are considered as the total binding. The specific binding is calculated then by subtracting the non-specific signal from the total binding. The Ki and IC₅₀ are calculated using the “One site-Fit Ki” and “One site-FitlogIC50” from GraphPad Prism 9 (Graphpad Software, San Diego, CA, USA), respectively.

The target of assay [4] is T7, human CCR8. Briefly: flow cytometry, hCCR8-transfected CHO-K1 cells. How it is done:
The same staining protocol was applied on human CCR8 transfected CHO cell line versus wild type CHO cell line, cutaneous T cell lymphoma HUT78 cell line and human activated T cell model.
Briefly, 1.10⁵ cells per well in a 96 well plate were incubated with a dilution of unconjugated anti-CCR8 mAb at 10 μg/mL then diluted at 1/3.33, 4 dilution points (during 30 min at 4° C.). […] Subsequently, cells are centrifuged (5 min at 400 g) and bound antibody is detected with F(ab′)2-Goat anti-Mouse IgG (H+L) Cross-Adsorbed Secondary Antibody, Alexa Fluor 488 (dilution 1/500) (Invitrogen by Thermofisher Scientific, Illkirch-Graffenstaden, France) or with F(ab′)₂-Goat anti-Human IgG Fc Secondary Antibody, PE (Invitrogen by Thermofisher Scientific, Illkirch-Graffenstaden, France) (dilution 1/1000) at 4° C. for 30 min. […] Bound detection antibody is quantified on a MacsQuant16 (Miltenyi, Gladbach, Germany) (B1 or B2 channel, 5000 events per acquisition). […] EC50 values were determined via nonlinear fit “log (agonist) vs.response—Variable slope (four parameters)” function of Graphpad prism. EC50 values were not constantly determined in the same experiments.

For assay [5], the target named is T7, human CCR8. As to the kind of experiment: cell-based or functional assay. The source holds these as a separate data set.

T6 sequence (peptide, as listed by the source): as above
T1 sequence (peptide, as listed by the source): as above

B1: anti-CCR8 mAb 1-20 (antibody, human IgG1, kappa)
heavy: not shown
light: DIVMTQAAPSLSVTPGESASISCTSSKSLLHSNGNTYLYWFLQKPGQSPQLLIYRMSNLASGVPDRFSGSGSGTAFTLKISRVEAEDVGVYYCMQHREYPFTFGSGTKLEIKRTVAAPSVFIFPPSDEQLKSGTASVVCLLNNFYPREAKVQWKVDNALQSGNSQESVTEQDSKDSTYSLSSTLTLSKADYEKHKVYACEVTHQGLSSPVTKSFNRGEC
notes: Humanized mAb, human IgG1 / kappa
Take B1: the binding result with pm5, in the assay with pm3, with pm6, with pm1, with pm8 and with pm4 was “binds” each time. For the same molecule, the “IC50 (read off the curve), inhibition of hCCL1 induced Gi2 signaling, No Wash-out” value in the assay with human CCR8 [1] is approximately 0.02 µg/mL. Besides, in the assay with human CCR8 [1], the “IC50 (read off the curve), inhibition of hCCL1 induced Gi2 signaling, Wash-out (6 h)” value was approximately 0.06 µg/mL.

B2: anti-CCR8 mAb 1-22 (antibody, human IgG1, kappa, V domains shown)
VH: EVQLLESGGGLVQPGGSLRLSCAASGFTFNAYAMNWVRQAPGKGLEWVARIRSKSNDYATYYGDSVKGRFTISRDNSKNTLYLQMNSLRAEDTAVYYCVRGREAYYRYDGGYYAMDVWGQGTTVTVSS
VL: DIVMTQSPLSLPVTPGEPASISCRSSKSLLHSNGNTYLYWFLQKPGQSPQLLIYRVSNLASGVPDRFSGSGSGTDFTLKISRVEAEDVGVYYCMQHREYPFTFGQGTKLEIKR
notes: as for B1
Consider B2, for which the binding result with pm5, in the assay with pm3, with pm6, with pm1, with pm8 and with pm4 was “binds” in each case. Besides, the “% hCCR8 internalization with CCL1 300 nM, mAb 1 µg/ml (HTRF)” value in [2] amounted to 139%. Further, the “% hCCR8 internalization with CCL1 300 nM, mAb 10 µg/ml (HTRF)” value in assay [2] was determined as 52%. The IC50 (commonly the midpoint of a concentration-inhibition curve) in assay [3] was 0.1 to 1 nM.

B3: anti-CCR8 mAb 1-25 (antibody, human IgG1, kappa, V domains shown)
VH: QVQLVESGGGVVQPGRSLRLSCAASGFTFSNYRMHWVRQAPGKGLEWIAVIKVKSDNYGANYADSVKGRFTISRDNSKNTLYLQMNSLRAEDTAVYYCSSPTYPGSSGFAYWGQGTLVTVSS
VL: DIQMTQSPSSLSASVGDRVTITCRASQDISNYLNWYQQKPDGTVKLLIYYTSRLHTGVPSRFSGSGSGTDYTLTISNLQQEDIATYFCQQGNKFPPTFGGGTKVEINR
notes: as for B1
Regarding B3, the concentration for a half-maximal effect (EC50) (usually the concentration at which the effect is half-maximal) with human CCR8 [4] was 0.1 nM. Moreover, in the assay with human CCR8 [5], the “ADCC % max lysis, HUT78 targets, NK donor 3” value worked out at 16%; the “ADCC % max lysis, HUT78 targets, NK donor 4” value is 19%; the “ADCC EC50, HUT78 targets, NK donor 3” value was 349 pM; the “ADCC EC50, HUT78 targets, NK donor 4” value stood at 1910 pM.
